Measured values as given in the supplement of paper PMC9170038.

Test system: MS2 coat protein
Experiment: apparent KD of MS2 coat protein; designed switch direction (-1 OFF switch, 1 ON switch): -1; higher = weaker reporter binding
Summary of the method: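 The reported apparent KD is a per-design median over clusters, from curve fits of normalised cluster fluorescence. Protein titrations used SNAP-549-labelled MS2 coat protein, doubled from 0.7 or 1.5 nM to 3 µM, in Tris-HCl pH 7.5 buffer with KCl, MgCl2, BSA, DTT, tRNA and Tween-20, with no input, 200 uM small-molecule ligand, or an oligonucleotide input. The RNA switches were transcribed on Illumina chips by stalled E. coli RNA polymerase.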

[1] = input ligand: microRNA oligo, concentration not stated
[2] = Eterna round: R95, input ligand: FMN 200 uM
[3] = Eterna round: R95, input ligand: microRNA oligo, concentration not stated
[4] = Eterna round: R95, input ligand: none

Row | Sequence | apparent KD of MS2 coat protein (input ligand: FMN 200 uM) | apparent KD of MS2 coat protein [1] | apparent KD of MS2 coat protein (input ligand: none) | apparent KD of MS2 coat protein [2] | apparent KD of MS2 coat protein [3] | apparent KD of MS2 coat protein [4]
1 | GCACGGAAUGUAGGAUAUUAGUGCGAUUAGCACUGAGAAGGACAUGAGGAUCACCCAUGUAACUCAAUAAUAAACCUUCCGUGC [Eli exng1 - 045] (Eterna round: R96, puzzle: Exclusion NG 1) | 11.2 nM | 8.85 nM | 12.2 nM | – | – | –
2 | AUAUUAAUAGUAAGGAUAUGCGUAUAUAUAAUUAUGCAGAAGGUACAUGAGGAUCACCCAUGUAUUAAUGUGUA [LRO-BmodExc4-02-Oppy's Opus] (Eterna round: R97, puzzle: Brourd's mod of Exclusion 4) | 13.5 nM | – | 13 nM | – | – | –
3 | CCGAAGUGGCGGUCCUAUGACAUGAGGAUCACCCAUGUACUUCGCCACAAGCUUUUUGCUCAUCUUAUAGUUCUCGG [Ator] (puzzle: Sensor v3, turn-off variant 1) | – | – | – | 16.4 nM | 25.1 nM | 16.4 nM
4 | GUAGAGUCAGGAUAUACAGAAAGUGGCUGGAAAACAGUGGCACAUGAGGAUCACCCAUGUAGAAGGGACUCUAC [ChP 11-04-2015 #1] (puzzle: Exclusion 2) | – | – | – | – | 84.3 nM | –
5 | GUCGUGCGGCUGUGCUGUACGAGUACAUGAGGAUCACCCAUGUAGGAUAUGGUUCGUUUUGCGUGCUAGAAGGGCGUGCGUUUU [Excl-NG3-LRO17] (Eterna round: R96, puzzle: Exclusion NG 3) | 17.9 nM | 17 nM | 21.4 nM | – | – | –
6 | ACGCCACAUGAGGAUCACCCAUGUGAGGAUAUGGCCUGUUUGGCGUGUGCUGGCUCUGUCAGAAGGCGCGUGGG [salish99_ex1_r4_039] (Eterna round: R97, puzzle: Exclusion 1) | 45.4 nM | – | 42.3 nM | – | – | –
7 | GUAAUUAAUGUAGGAUAUGCAAGGCGAACCUAAGCAGAAGGACAUGAGGAUCACCCAUGUAUUGCGGUCUGCGUUCAGUUCGCU [salish99_ExNG1_r4_011] (Eterna round: R96, puzzle: Exclusion NG 1) | 9.41 nM | 6.39 nM | 10.2 nM | – | – | –
8 | UUAAUUAGCAGACUAAUACCUCACAUGAGGAUCACCCAUGUGCAGGAUAUCAGCUCGUGUAGAGCUGAGAAGGGCACUGUCUGC [ExNG3/12-A3] (Eterna round: R96, puzzle: Exclusion NG 3) | 17 nM | 10.2 nM | 10.8 nM | – | – | –
9 | GGUCAAGGACAGCUCCGCGCUGCCCUUGACCGCUCAUUUACAUGAGGAUCACCCAUGUUUUUUGCUUGUCUUGUUUC [Atedorgela] (puzzle: Sensor v3, turn-off variant 2) | – | – | – | 20 nM | 110 nM | 24.2 nM
10 | UAUAACCAAGGAUAUACAUGAGGAUCACCCAUGUAAUAUAAAAUAAAAUAAAUAAAAUGUAGAAGGUGGGAUAU (Eterna round: R97, puzzle: Exclusion 3) | 40.8 nM | – | 37.6 nM | – | – | –
11 | CUCCUCAUGACGCCUAAACACAUGAGGAUCACCCAUGUACAGGCUUUUUGUCGUCUUAUAAUAAAACCGAGGAUACG [Orlaorusti] (puzzle: Sensor v3, turn-off variant 1) | – | – | – | 20.2 nM | 116 nM | 23.2 nM
12 | AACAAGGUAGGAUAUACAUGAGGAUCACCCAUGUCCCACCCGUUACCUAUGACCAUAUGUAGAAGGACCAAUAA [Exy#6] (Eterna round: R97, puzzle: Exclusion 3) | 16.7 nM | – | 17.8 nM | – | – | –
13 | CCCACAGGCUUUUUGCUCGACAUGAGGAUCACCCAUGUUGAAUGGGUUGUGUGUGUGUGAUACAUAUAUAUGGUCCU [-25.5, -50.5 kcal, A 21%] (Eterna round: R97, puzzle: Sensor, turn-off variant 1) | 142 nM | – | 158 nM | – | – | –
14 | CUCAAACAUGAGGAUCACCCAUGUCAGGAUAUGAUACUAUGUACUUCGGUACAUAGUAUCAGAAGGGAUAUGAA [Ex1-3: 66] (puzzle: Exclusion 1) | – | – | – | – | 69.3 nM | –
